Data reported in US10849992B1, “Methods of screening for sortilin binding antagonists” (ALECTOR LLC, priority 2015, dated 2020).
Each block holds one molecule with its values, some of them ahead of it. No end group written: not given here. *: point of attachment. Biotin = O=C1N[C@H]2[C@H](CS[C@H]2CCCCC(=O)*)N1

Legend:
[1] = molecular target: T1, human sortilin expressed on cells (human, UniProt Q99523 78-831); assay: FACS, blocking of PGRN-DyLight650 binding and endocytosis on sortilin-expressing cells
T1 construct: Transiently transfected HEK293T cells; The same id is used for endogenous sortilin on U-251 cells; also called Sortilin1; full-length Sortilin
T1 sequence: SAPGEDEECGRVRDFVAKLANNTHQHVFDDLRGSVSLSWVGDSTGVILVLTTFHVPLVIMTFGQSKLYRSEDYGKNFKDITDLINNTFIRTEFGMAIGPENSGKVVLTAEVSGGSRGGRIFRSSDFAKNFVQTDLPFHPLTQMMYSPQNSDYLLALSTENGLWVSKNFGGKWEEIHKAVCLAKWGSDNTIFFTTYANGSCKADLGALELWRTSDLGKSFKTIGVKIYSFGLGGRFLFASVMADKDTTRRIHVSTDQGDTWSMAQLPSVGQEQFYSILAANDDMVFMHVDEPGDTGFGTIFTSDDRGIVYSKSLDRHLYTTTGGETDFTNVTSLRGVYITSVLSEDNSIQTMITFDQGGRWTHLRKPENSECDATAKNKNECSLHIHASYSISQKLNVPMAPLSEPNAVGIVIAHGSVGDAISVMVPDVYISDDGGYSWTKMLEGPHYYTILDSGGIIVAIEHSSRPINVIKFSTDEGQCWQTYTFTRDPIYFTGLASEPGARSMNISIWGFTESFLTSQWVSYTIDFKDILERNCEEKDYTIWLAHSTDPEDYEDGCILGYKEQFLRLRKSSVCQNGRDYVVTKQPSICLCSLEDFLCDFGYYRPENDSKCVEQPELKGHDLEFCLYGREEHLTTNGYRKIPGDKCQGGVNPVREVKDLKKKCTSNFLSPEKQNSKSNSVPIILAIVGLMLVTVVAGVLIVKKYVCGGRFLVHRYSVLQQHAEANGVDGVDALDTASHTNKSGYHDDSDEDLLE

[2] = molecular target: T1, human sortilin expressed on cells; assay: FACS, blocking of biotinylated PGRN binding to sortilin-expressing HEK293T cells
Description: (§1) Cells were then washed and incubated with Streptavidin-APC and analyzed using Fluorescence Activated Cell Sorting (FACS). […] Cells were transiently transfected with human Sortilin or lacZ (control) and GFP using Fugene and harvested after 24 h. GFP was either expressed by a second vector (Topo3.3, Invitrogen) or located on the same vector, separated by an IRES sequence (pCMV6-AC-IRES-GFP, Origene). Full-length Sortilin was used either untagged (Topo3.3) or with a C-terminal myc tag (pCMV6-AC-IRES-GFP). […] After washing cells 3 times in HBSS+1% BSA, cells were incubated in Streptavidin-APC (BD Biosciences, 1:20) on ice for 30 min. Then cells were washed again, resuspended in HBSS+1% BSA and analyzed on a FACSCanto™ flow cytometer (BD Biosciences, Mississauga, ON).

[3] = molecular target: T1, human sortilin expressed on cells; assay: flow cytometry on transiently transfected HEK293T cells, on ice, Streptavidin-APC, median fluorescence intensity
Description: as §1

Sortilin = molecular target: T2, Sortilin (Homo sapiens, UniProt Q99523); assay: Cell-based FACS assay: biotinylated PGRN binding to HEK293T cells expressing Sortilin; design: Full-length Sortilin was used either untagged (Topo3.3) or with a C-terminal myc tag (pCMV6-AC-IRES-GFP); myc (only in the pCMV6-AC-IRES-GFP construct); expressed in transfected cells; host or cells: HEK293T; settings: on ice 2 h, Streptavidin-APC
T2 sequence (Q99523 78-831): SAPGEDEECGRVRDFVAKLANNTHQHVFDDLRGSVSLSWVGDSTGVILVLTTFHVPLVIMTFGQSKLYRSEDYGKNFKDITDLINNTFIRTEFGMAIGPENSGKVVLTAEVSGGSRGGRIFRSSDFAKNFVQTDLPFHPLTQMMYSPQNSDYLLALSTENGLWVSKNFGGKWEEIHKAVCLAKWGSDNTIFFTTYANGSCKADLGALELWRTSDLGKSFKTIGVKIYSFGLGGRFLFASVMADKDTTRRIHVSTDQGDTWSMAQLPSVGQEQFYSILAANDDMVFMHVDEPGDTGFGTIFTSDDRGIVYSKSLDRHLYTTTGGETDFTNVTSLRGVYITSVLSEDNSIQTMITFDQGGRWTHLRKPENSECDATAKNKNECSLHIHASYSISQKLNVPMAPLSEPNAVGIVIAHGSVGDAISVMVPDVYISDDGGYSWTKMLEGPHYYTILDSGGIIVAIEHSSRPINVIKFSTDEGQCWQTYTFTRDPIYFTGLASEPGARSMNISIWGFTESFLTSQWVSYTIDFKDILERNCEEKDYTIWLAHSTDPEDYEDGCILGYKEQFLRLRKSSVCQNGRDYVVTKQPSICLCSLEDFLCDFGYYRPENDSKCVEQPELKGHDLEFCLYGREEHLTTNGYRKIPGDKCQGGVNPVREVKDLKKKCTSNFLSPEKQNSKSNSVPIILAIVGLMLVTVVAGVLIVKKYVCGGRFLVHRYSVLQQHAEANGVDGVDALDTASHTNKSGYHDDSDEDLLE
Description: HEK293T cells were transiently transfected with constructs for expressing Sortilin or LacZ (control) and incubated with biotinylated PGRN protein on ice for 2 h. Both human and mouse PGRN proteins were tested. Cells were then washed and incubated with Streptavidin-APC and analyzed using Fluorescence Activated Cell Sorting (FACS). For blocking assay, sortilin pro-domain peptide was used. Recombinant human PGRN (Adipogen) was biotinylated using a kit (EZ-link-Micro-NHS-PEG4 biotinylation kit, Thermo Scientific Pierce, #21955). Cells were transiently transfected with human Sortilin or lacZ (control) and GFP using Fugene and harvested after 24 h. GFP was either expressed by a second vector (Topo3.3, Invitrogen) or located on the same vector, separated by an IRES sequence (pCMV6-AC-IRES-GFP, Origene). Full-length Sortilin was used either untagged (Topo3.3) or with a C-terminal myc tag (pCMV6-AC-IRES-GFP). Human Progranulin was added in HBSS+1% BSA or PBS+1% BSA with or without Sortilin pro-peptide as a blocker, and incubated on ice for 2 h. […] Then cells were washed again, resuspended in HBSS+1% BSA and analyzed on a FACSCanto™ flow cytometer (BD Biosciences, Mississauga, ON). PGRN binding was measured as the median fluorescence intensity of APC on the GFP positive population.

[4] = molecular target: T3, sortilin protein with a C-terminal 6×His-tag (Homo sapiens (Human), UniProt Q99523 78-755, directly conjugated with d2 in assay format #3 (site not stated); unlabeled and detected with d2-labeled 1C12 in assay format #10); assay: HTRF, assay format #10: sortilin at 9 nM, anti-sortilin 1C12 at 20 ng/well, SA-Tb at 0.33 nM; assay format #10: sortilin detected with anti-sortilin 1C12 antibody, SA-Tb
T3 construct: Soluble sortilin of the HTRF assays; also called sortilin-d2; Tb-conjugated sortilin protein
T3 sequence: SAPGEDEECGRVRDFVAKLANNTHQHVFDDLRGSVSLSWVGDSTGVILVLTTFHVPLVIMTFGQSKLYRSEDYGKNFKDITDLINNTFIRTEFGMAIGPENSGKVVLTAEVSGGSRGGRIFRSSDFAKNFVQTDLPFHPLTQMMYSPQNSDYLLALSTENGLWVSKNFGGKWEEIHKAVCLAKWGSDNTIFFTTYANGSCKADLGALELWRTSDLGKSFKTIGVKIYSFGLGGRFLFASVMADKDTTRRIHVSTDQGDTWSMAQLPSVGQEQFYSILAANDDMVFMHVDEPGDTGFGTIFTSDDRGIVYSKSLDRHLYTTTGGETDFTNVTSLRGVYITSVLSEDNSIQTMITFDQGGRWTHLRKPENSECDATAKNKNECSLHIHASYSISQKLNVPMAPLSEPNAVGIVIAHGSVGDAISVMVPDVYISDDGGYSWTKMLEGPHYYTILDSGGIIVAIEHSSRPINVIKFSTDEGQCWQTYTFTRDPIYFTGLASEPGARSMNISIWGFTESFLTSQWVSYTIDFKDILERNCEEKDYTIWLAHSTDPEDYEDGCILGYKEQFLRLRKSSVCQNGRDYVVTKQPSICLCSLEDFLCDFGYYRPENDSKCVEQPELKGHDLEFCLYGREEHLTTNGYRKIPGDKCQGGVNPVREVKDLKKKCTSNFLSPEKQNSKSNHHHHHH
From the text: (§2) Assay #3 uses directly d2 conjugated sortilin and SA-Tb to detect the peptide. […] Assay #10 uses anti-sortilin 1C12 antibody to detect sortilin and SA-Tb to detect the peptide.

[5] = molecular target: T3, sortilin protein with a C-terminal …; assay: HTRF, assay format #3: sortilin-d2 at 9 nM, SA-Tb at 0.33 nM; assay format #3: directly d2 conjugated sortilin, SA-Tb
From the text: as §2

[6] = molecular target: T3, sortilin protein with a C-terminal …; assay: row HotKdNM of the drawn table: Kd of the labelled (biotinylated) peptide for sortilin, held constant in the Ki fit of assay format 10; same value in all three columns

IC50 [1]: 35 nM
B1: non-biotinylated PGRN peptide (peptide)
peptide: TKCLRREAPRWDAPLRDPALRQLL
notes: also called unlabeled PGRN peptide; C-terminal peptide of PGRN

IC50 [1]: 450 nM | IC50 [2]: ~5900 nM
B2: sortilin pro-domain peptide (peptide, UniProt Q99523 34-77, looked up)
peptide: QDRLDAPPPPAAPLPRWSGPIGVSWGLRAAAAGGAFPRGGRWRR
notes: domain: pro-domain; also called Sortilin1 pro-domain peptide; sortilin pro-peptide

binding result [3]: binds
B3: biotinylated mouse PGRN (ligand, UniProt P28798 18-589, looked up)
chain: TQCPDGQFCPVACCLDQGGANYSCCNPLLDTWPRITSHHLDGSCQTHGHCPAGYSCLLTVSGTSSCCPFSKGVSCGDGYHCCPQGFHCSADGKSCFQMSDNPLGAVQCPGSQFECPDSATCCIMVDGSWGCCPMPQASCCEDRVHCCPHGASCDLVHTRCVSPTGTHTLLKKFPAQKTNRAVSLPFSVVCPDAKTQCPDDSTCCELPTGKYGCCPMPNAICCSDHLHCCPQDTVCDLIQSKCLSKNYTTDLLTKLPGYPVKEVKCDMEVSCPEGYTCCRLNTGAWGCCPFAKAVCCEDHIHCCPAGFQCHTEKGTCEMGILQVPWMKKVIAPLRLPDPQILKSDTPCDDFTRCPTNNTCCKLNSGDWGCCPIPEAVCCSDNQHCCPQGFTCLAQGYCQKGDTMVAGLEKIPARQTTPLQIGDIGCDQHTSCPVGQTCCPSLKGSWACCQLPHAVCCEDRQHCCPAGYTCNVKARTCEKDVDFIQPPVLLTLGPKVGNVECGEGHFCHDNQTCCKDSAGVWACCPYLKGVCCRDGRHCCPGGFHCSARGTKCLRKKIPRWDMFLRDPVPRPLL
modifications: biotinylated (sites not given)

binding of PGRN to sortilin-expressing, but not control (LacZ), HEK293T cells (Sortilin): strong and specific binding
B4: mouse PGRN: mouse PGRN protein, biotinylated, tested in the FACS binding assay (protein)
chain: TQCPDGQFCPVACCLDQGGANYSCCNPLLDTWPRITSHHLDGSCQTHGHCPAGYSCLLTVSGTSSCCPFSKGVSCGDGYHCCPQGFHCSADGKSCFQMSDNPLGAVQCPGSQFECPDSATCCIMVDGSWGCCPMPQASCCEDRVHCCPHGASCDLVHTRCVSPTGTHTLLKKFPAQKTNRAVSLPFSVVCPDAKTQCPDDSTCCELPTGKYGCCPMPNAICCSDHLHCCPQDTVCDLIQSKCLSKNYTTDLLTKLPGYPVKEVKCDMEVSCPEGYTCCRLNTGAWGCCPFAKAVCCEDHIHCCPAGFQCHTEKGTCEMGILQVPWMKKVIAPLRLPDPQILKSDTPCDDFTRCPTNNTCCKLNSGDWGCCPIPEAVCCSDNQHCCPQGFTCLAQGYCQKGDTMVAGLEKIPARQTTPLQIGDIGCDQHTSCPVGQTCCPSLKGSWACCQLPHAVCCEDRQHCCPAGYTCNVKARTCEKDVDFIQPPVLLTLGPKVGNVECGEGHFCHDNQTCCKDSAGVWACCPYLKGVCCRDGRHCCPGGFHCSARGTKCLRKKIPRWDMFLRDPVPRPLL

Kd [4]: 1.6 nM | Kd [5]: 2 nM | Kd [6]: 1.4 nM
B5: biotinylated PGRN peptide (peptide)
peptide: Biotin-TKCLRREAPRWDAPLRDPALRQLL
notes: Detected through streptavidin-Tb in formats #3, #6 and #10; also called 24 amino acid-sized C-terminal peptide of PGRN; biotinylated peptide
